Here are results for six molecules from PMC5490006 (Nature Communications, 2017).

Holding throughout (conditions): both partners purified
The target in one assay is T1, Mcm2 (budding yeast, UniProt P29469 1-868).
T1 construct: Mcm2, subunit of the budding yeast MCM (Mcm2-7), expressed as an individual subunit; source: E. coli, purified
T1 sequence (looked up): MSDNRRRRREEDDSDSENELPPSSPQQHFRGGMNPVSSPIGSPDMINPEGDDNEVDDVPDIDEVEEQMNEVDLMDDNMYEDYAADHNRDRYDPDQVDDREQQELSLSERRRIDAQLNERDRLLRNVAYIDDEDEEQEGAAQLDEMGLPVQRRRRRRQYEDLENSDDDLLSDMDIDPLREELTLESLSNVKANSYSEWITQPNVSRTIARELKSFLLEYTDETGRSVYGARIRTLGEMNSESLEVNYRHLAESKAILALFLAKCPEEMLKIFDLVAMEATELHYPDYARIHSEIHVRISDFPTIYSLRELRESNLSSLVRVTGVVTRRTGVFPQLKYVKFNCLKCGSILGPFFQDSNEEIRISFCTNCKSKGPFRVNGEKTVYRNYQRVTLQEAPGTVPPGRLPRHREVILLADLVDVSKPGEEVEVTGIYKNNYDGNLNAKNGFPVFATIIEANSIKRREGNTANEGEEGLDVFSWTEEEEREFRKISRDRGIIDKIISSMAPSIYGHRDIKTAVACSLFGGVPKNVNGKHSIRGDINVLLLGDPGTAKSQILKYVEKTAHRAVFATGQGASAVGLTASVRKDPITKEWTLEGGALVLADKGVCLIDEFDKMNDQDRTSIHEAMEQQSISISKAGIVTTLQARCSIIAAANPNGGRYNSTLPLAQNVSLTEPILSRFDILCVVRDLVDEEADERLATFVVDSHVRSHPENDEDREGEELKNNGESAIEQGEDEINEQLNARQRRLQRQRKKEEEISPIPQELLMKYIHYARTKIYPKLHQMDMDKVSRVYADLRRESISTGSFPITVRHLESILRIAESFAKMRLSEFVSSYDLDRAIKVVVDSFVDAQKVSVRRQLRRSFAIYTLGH
Briefly: pull-down; Cdt1-His-SUMO fragments held on Ni-NTA magnetic beads, Mcm2 or Mcm6 in solution; 10 μg of each protein, buffer B (25 mM Hepes-KOH pH 7.6, 0.02% NP-40, 10% glycerol, 0.1 M K glutamate), 60 min at 4 °C; Coomassie.

The target in assay [1] is T2, Mcm6 (budding yeast, UniProt P53091 1-1017).
T2 construct: Mcm6, subunit of the budding yeast MCM (Mcm2-7), expressed as an individual subunit; called Mcm6 fl and the full-length protein; also called Mcm6 fl; full-length Mcm6; source: E. coli, purified
T2 sequence (P53091 whole entry): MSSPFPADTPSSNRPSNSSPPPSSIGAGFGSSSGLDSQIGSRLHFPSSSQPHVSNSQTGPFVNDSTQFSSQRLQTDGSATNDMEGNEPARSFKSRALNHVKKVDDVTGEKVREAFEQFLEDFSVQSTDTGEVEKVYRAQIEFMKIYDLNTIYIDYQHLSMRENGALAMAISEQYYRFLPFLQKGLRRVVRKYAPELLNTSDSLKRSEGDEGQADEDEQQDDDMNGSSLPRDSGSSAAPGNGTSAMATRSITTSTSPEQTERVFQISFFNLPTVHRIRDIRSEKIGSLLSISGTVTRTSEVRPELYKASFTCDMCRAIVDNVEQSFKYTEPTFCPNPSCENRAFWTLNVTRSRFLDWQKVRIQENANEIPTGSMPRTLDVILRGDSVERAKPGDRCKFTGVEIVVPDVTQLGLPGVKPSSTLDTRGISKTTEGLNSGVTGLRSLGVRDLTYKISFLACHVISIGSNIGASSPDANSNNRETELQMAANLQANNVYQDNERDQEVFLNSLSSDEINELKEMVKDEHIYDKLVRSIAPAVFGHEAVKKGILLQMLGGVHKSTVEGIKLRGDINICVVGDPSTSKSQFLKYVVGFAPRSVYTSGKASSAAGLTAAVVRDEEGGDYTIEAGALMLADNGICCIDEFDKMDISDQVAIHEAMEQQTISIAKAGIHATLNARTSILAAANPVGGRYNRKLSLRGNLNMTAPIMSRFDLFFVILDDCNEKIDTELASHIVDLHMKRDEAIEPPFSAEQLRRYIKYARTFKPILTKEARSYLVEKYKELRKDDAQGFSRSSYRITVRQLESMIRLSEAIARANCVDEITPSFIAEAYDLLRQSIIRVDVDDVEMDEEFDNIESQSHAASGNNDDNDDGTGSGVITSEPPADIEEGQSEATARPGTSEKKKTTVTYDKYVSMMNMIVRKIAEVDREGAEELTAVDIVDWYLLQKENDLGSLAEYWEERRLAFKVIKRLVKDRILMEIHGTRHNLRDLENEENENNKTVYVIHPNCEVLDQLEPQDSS
The description is as above.

Assay [2] concerns the target T2, Mcm6. Nature of the assay: co-IP; purified Mcm2-7 subunits (0.5 μM) individually incubated with purified Cdt1 (0.5 μM) or buffer, room temperature 60 min, buffer A/2 mM 2-mercaptoethanol; immunoprecipitation with polyclonal anti-Cdt1 antibody on protein A sepharose, 2 h at 4 °C; SDS-PAGE, Coomassie.
Assay [3] deals with T3, Mcm6 tagged with GFP-FLAG, within an MCM-GFP,FLAG–Cdt1 complex (budding yeast, UniProt P53091 1-1017).
T3 construct: Mcm6, budding yeast MCM subunit; also called Mcm6-GFP-FLAG; source: purified MCM-GFP,FLAG-Cdt1 complex; not shown: GFP, C-terminal, kept; FLAG, C-terminal, kept
T3 sequence (P53091 whole entry, one chain of several): as the sequence (P53091 whole entry) above
Nature of the assay: cross-linking; MCM-GFP,FLAG-Cdt1 complexes (20 μg) crosslinked with 25 μM BS3, 30 min room temperature, buffer B; denatured with SDS; immunoprecipitation with anti-FLAG beads under denaturing conditions; western blot against Cdt1.

The target of assay [4] is T4, Mcm6 within purified Cdt1–MCM complexes (budding yeast, UniProt P53091 1-1017).
T4 construct: Mcm6, yeast MCM subunit, as part of the Cdt1-MCM complex; source: purified Cdt1-MCM complex
T4 sequence (P53091 whole entry, one chain of several): as the sequence (P53091 whole entry) above
Nature of the assay: negative-stain electron microscopy; single-particle EM of the Cdt1-MCM complex, apo and with ATPγS, 2% uranyl formate; 3D reconstruction (20.4 and 18.0 Å) with docking of MCM atomic structures and of the Cdt1 NM crystal structure.

In the next assay the target is T5, Mcm4 (budding yeast, UniProt P30665 1-933).
T5 construct: Mcm4, subunit of the budding yeast MCM (Mcm2-7), expressed as an individual subunit; source: E. coli, purified
T5 sequence (looked up): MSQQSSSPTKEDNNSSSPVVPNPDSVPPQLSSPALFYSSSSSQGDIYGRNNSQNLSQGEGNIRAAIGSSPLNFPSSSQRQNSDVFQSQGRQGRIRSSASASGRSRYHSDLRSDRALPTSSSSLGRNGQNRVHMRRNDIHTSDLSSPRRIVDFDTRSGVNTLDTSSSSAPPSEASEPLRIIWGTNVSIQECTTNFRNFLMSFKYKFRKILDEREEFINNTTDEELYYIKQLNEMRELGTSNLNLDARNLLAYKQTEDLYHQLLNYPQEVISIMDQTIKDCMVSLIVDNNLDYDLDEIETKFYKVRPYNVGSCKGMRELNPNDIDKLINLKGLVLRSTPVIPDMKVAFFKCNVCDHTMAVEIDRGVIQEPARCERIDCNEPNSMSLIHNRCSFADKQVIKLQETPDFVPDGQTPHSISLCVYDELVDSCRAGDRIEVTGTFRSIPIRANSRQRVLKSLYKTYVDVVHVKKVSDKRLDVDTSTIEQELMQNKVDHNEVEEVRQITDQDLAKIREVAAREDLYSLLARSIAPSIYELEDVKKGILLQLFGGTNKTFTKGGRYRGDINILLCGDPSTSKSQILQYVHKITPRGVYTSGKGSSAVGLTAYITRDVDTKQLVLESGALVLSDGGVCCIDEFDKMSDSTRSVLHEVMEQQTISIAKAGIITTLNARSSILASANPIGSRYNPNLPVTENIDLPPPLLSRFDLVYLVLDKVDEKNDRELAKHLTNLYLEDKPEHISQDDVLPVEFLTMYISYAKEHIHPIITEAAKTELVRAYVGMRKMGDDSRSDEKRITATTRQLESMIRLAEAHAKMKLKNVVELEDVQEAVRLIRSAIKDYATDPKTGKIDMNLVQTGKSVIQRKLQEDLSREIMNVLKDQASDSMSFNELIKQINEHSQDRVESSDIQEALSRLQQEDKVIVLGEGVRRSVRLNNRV
Nature of the assay: SEC; 10 μg of each Mcm subunit combined as pairs 3/7, 4/7 and 2/6, dialysed against buffer A, fractionated over Superdex 200 PC 3.2/30 in buffer A; fractions with the dimers pooled.

In another assay the target is T6, Mcm3 (budding yeast, UniProt P24279 1-971).
T6 construct: Mcm3, subunit of the budding yeast MCM (Mcm2-7), expressed as an individual subunit; source: E. coli, purified
T6 sequence (P24279 whole entry): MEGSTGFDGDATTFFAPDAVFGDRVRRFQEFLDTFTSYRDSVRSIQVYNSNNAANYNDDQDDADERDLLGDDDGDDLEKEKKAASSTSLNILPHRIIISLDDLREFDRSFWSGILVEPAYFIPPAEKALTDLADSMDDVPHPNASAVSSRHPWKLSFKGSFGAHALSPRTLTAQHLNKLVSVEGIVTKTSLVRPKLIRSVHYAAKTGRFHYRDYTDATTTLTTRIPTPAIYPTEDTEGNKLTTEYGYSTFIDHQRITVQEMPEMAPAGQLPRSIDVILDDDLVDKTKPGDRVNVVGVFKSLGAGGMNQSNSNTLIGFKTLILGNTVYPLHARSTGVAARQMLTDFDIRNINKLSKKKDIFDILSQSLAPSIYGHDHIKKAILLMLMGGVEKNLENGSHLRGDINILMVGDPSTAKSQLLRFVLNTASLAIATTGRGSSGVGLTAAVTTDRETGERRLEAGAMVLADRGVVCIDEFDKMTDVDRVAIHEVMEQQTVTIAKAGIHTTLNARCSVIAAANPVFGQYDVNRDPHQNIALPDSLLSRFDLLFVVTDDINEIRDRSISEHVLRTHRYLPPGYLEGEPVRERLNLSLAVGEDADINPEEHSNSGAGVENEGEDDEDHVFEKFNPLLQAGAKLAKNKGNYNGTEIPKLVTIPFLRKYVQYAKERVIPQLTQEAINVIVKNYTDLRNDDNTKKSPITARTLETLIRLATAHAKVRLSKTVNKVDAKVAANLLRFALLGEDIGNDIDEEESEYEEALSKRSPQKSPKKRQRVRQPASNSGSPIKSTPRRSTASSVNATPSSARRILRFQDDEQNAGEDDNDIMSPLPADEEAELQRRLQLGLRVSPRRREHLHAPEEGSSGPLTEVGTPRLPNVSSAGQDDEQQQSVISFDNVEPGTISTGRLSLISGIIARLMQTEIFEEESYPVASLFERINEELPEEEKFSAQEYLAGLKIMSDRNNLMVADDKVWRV
The assay is described as above.

B1: Cdt1-MC fused to His-SUMO (domain or fragment, S. cerevisiae, UniProt P47112 272-604, looked up)
chain: SKGEGTIANHLLEQQIKAFPKVAQQYYPRELSILRLQDAMKFVKELFTVCETVLSLNALSRSTGVPPELHVLLPQISSMMKRKIVQDDILKLLTIWSDAYVVELNSRGELTMNLPKRDNLTTLTNKSRTLAFVERAESWYQQVIASKDEIMTDVPAFKINKRRSSSNSKTVLSSKVQTKSSNANALNNSRYLANSKENFMYKEKMPDSQANLMDRLRERERRSAALLSQRQKRYQQFLAMKMTQVFDILFSLTRGQPYTETYLSSLIVDSLQDSNNPIGTKEASEILAGLQGILPMDISVHQVDGGLKVYRWNSLDKNRFSKLLQIHKSKQQD
notes: source: His-SUMO fusion
B1: the binding result in the assay with Mcm2 and in the assay with Mcm6 [1] was “binds” each time.

B2: Cdt1 (natural protein, S. cerevisiae, UniProt P47112 1-604, looked up)
chain: MSGTANSRRKEVLRVPVIDLNRVSDEEQLLPVVRAILLQHDTFLLKNYANKAVLDALLAGLTTKDLPDTSQGFDANFTGTLPLEDDVWLEQYIFDTDPQLRFDRKCRNESLCSIYSRLFKLGLFFAQLCVKSVVSSAELQDCISTSHYATKLTRYFNDNGSTHDGADAGATVLPTGDDFQYLFERDYVTFLPTGVLTIFPCAKAIRYKPSTMATTDNSWVSIDEPDCLLFHTGTLLARWSQGMHTTSPLQIDPRANIVSLTIWPPLTTPISSKGEGTIANHLLEQQIKAFPKVAQQYYPRELSILRLQDAMKFVKELFTVCETVLSLNALSRSTGVPPELHVLLPQISSMMKRKIVQDDILKLLTIWSDAYVVELNSRGELTMNLPKRDNLTTLTNKSRTLAFVERAESWYQQVIASKDEIMTDVPAFKINKRRSSSNSKTVLSSKVQTKSSNANALNNSRYLANSKENFMYKEKMPDSQANLMDRLRERERRSAALLSQRQKRYQQFLAMKMTQVFDILFSLTRGQPYTETYLSSLIVDSLQDSNNPIGTKEASEILAGLQGILPMDISVHQVDGGLKVYRWNSLDKNRFSKLLQIHKSKQQD
notes: Cdt1, S. cerevisiae; also called Cdt1 WT; wild-type Cdt1; source: recombinant, purified
As to B2, the binding result with Mcm6 [2] is recorded as “binds”.

B3: Cdt1 within purified Cdt1–MCM complexes (natural protein, S. cerevisiae, UniProt P47112 1-604, looked up)
chain: MSGTANSRRKEVLRVPVIDLNRVSDEEQLLPVVRAILLQHDTFLLKNYANKAVLDALLAGLTTKDLPDTSQGFDANFTGTLPLEDDVWLEQYIFDTDPQLRFDRKCRNESLCSIYSRLFKLGLFFAQLCVKSVVSSAELQDCISTSHYATKLTRYFNDNGSTHDGADAGATVLPTGDDFQYLFERDYVTFLPTGVLTIFPCAKAIRYKPSTMATTDNSWVSIDEPDCLLFHTGTLLARWSQGMHTTSPLQIDPRANIVSLTIWPPLTTPISSKGEGTIANHLLEQQIKAFPKVAQQYYPRELSILRLQDAMKFVKELFTVCETVLSLNALSRSTGVPPELHVLLPQISSMMKRKIVQDDILKLLTIWSDAYVVELNSRGELTMNLPKRDNLTTLTNKSRTLAFVERAESWYQQVIASKDEIMTDVPAFKINKRRSSSNSKTVLSSKVQTKSSNANALNNSRYLANSKENFMYKEKMPDSQANLMDRLRERERRSAALLSQRQKRYQQFLAMKMTQVFDILFSLTRGQPYTETYLSSLIVDSLQDSNNPIGTKEASEILAGLQGILPMDISVHQVDGGLKVYRWNSLDKNRFSKLLQIHKSKQQD
notes: also called Cdt1 (in MCM-GFP,FLAG–Cdt1 complexes and in the Cdt1–MCM complex used for electron microscopy); source: purified Cdt1-MCM complex
On to B3, for which the binding result in assay [3] and in assay [4] was “binds” throughout.

B4: Cdt1 fragment 495–604 fused to His-SUMO (domain or fragment, S. cerevisiae, UniProt P47112 495-604, looked up)
chain: AALLSQRQKRYQQFLAMKMTQVFDILFSLTRGQPYTETYLSSLIVDSLQDSNNPIGTKEASEILAGLQGILPMDISVHQVDGGLKVYRWNSLDKNRFSKLLQIHKSKQQD
notes: assigned by the order of description; The crystallised protein had the tag removed; also called CTD; source: His-SUMO fusion; E. coli is told for the crystallised fragment of the same limits
For the molecule B4, the binding result with Mcm2 and with Mcm6 [1] was “binds” each time.

B5: Cdt1 fragment 271–496 fused to His-SUMO (domain or fragment, S. cerevisiae, UniProt P47112 271-496, looked up)
chain: SSKGEGTIANHLLEQQIKAFPKVAQQYYPRELSILRLQDAMKFVKELFTVCETVLSLNALSRSTGVPPELHVLLPQISSMMKRKIVQDDILKLLTIWSDAYVVELNSRGELTMNLPKRDNLTTLTNKSRTLAFVERAESWYQQVIASKDEIMTDVPAFKINKRRSSSNSKTVLSSKVQTKSSNANALNNSRYLANSKENFMYKEKMPDSQANLMDRLRERERRSAA
notes: source: His-SUMO fusion
With B5, the binding result with Mcm2 and in the assay with Mcm6 [1] was “binds” in each case.

B6: Mcm7 (natural protein, budding yeast, UniProt P38132 1-845, looked up)
chain: MSAALPSIQLPVDYNNLFNEITDFLVTFKQDTLSSDATRNENEDENLDAENIEQHLLEKGPKYMAMLQKVANRELNSVIIDLDDILQYQNEKFLQGTQADDLVSAIQQNANHFTELFCRAIDNNMPLPTKEIDYKDDVLDVILNQRRLRNERMLSDRTNEIRSENLMDTTMDPPSSMNDALREVVEDETELFPPNLTRRYFLYFKPLSQNCARRYRKKAISSKPLSVRQIKGDFLGQLITVRGIITRVSDVKPAVEVIAYTCDQCGYEVFQEVNSRTFTPLSECTSEECSQNQTKGQLFMSTRASKFSAFQECKIQELSQQVPVGHIPRSLNIHVNGTLVRSLSPGDIVDVTGIFLPAPYTGFKALKAGLLTETYLEAQFVRQHKKKFASFSLTSDVEERVMELITSGDVYNRLAKSIAPEIYGNLDVKKALLLLLVGGVDKRVGDGMKIRGDINVCLMGDPGVAKSQLLKAICKISPRGVYTTGKGSSGVGLTAAVMKDPVTDEMILEGGALVLADNGICCIDEFDKMDESDRTAIHEVMEQQTISISKAGINTTLNARTSILAAANPLYGRYNPRLSPLDNINLPAALLSRFDILFLMLDIPSRDDDEKLAEHVTYVHMHNKQPDLDFTPVEPSKMREYIAYAKTKRPVMSEAVNDYVVQAYIRLRQDSKREMDSKFSFGQATPRTLLGIIRLSQALAKLRLADMVDIDDVEEALRLVRVSKESLYQETNKSKEDESPTTKIFTIIKKMLQETGKNTLSYENIVKTVRLRGFTMLQLSNCIQEYSYLNVWHLINEGNTLKFVDDGTMDTDQEDSLVSTPKLAPQTTASANVSAQDSDIDLQDA
notes: Mcm7, subunit of the budding yeast MCM (Mcm2-7), expressed as an individual subunit; source: E. coli, purified
For the molecule B6, the binding result in the assay with Mcm4 and in the assay with Mcm3 was “binds” throughout.
